Experimental data reported in US11932908B2, “Compositions and methods for diagnosis and treatment of epilepsy” (THE REGENTS OF THE UNIVERSITY OF CALIFORNIA, priority 2004, dated 2024).
“Also recorded” adds a separate entry of the source.

What was measured:
[1] = tested on: mouse hippocampal primary culture neurons; details: 24, 36 and 48 hours after transfection; mutants compared to wild-type EFHC1
Protocol: Mouse hippocampal neurons primary culture. Hippocampal neurons were isolated from embryonic day 16 mice and plated at 1-2×10^5 cells per well in 24 well plate containing glass coverslips coated with poly-1-lysine and grown in serum-free NEUROBASAL™ media supplemented with B27, 0.5 mM L-glutamine (Invitrogen).
Transfection and immunostaining of mouse hippocampal neurons. […] Cultures were fixed with 4% paraformaldehyde in PBS 16 and 48 hours after transfection, permeabilized with 0.3% Triton X-100, blocked in 3% normal goat serum in PBS, and treated with mouse monoclonal anti-MAP-2 antibody (1:500; Sigma) and Alexa fluor 594 goat anti-mouse IgG antibody (1:1000; Molecular Probes).
TUNEL assay. […] Forty-eight hours after transfection, neuronal apoptosis was detected using DeadEndTM Fluorometric TUNEL System (Promega). Nuclei were visualized with Hoescht 33342 (Molecular Probes). These cells were also stained with anti-Myc antibody (1:200; Cell Signaling) and Alexa fluor 594 goat anti-rabbit IgG antibody (1:1000). All experiments were carried out in duplicate wells and at least repeated three times. Neuron cells were observed on a confocal microscope (OLYMPUS FLUOVIEW) following 48 hours post transfection.
Cell death analyses with EFHC1 mutants. […] Surviving cell numbers were scored by counting GFP fluorescent-positive cells that attached to dishes. At each counting, detached cells (dead cells) were carefully removed by changing culture medium. Morphologies of cells (cell shape, length and number of neurites, shrinkage, etc.) were not considered for the counting. Surviving cell numbers were scored at 24, 36, and 48 hours after transfection. Analyses were repeated twice by using two independently prepared expression construct DNAs. In total, neurons in seven wells of 24 well plates were counted for each transfection and time point. Experiments were performed in a blinded fashion.

PQ type VDCC (Cav2.1) = target: T1, PQ type VDCC (Cav2.1) (Oryctolagus cuniculus, UniProt P27884); assay: Patch-clamp analyses of HEK cell line with P/Q type VDCCs and wild type EFHC1 or mutant constructs; assay type: cell-based; details: for Activation V0.5 (mV): half-maximal voltage of activation; for Activation V0.5 (mV) / Inactivation V0.5 (mV) / Activation k (mV) / Inactivation K (mV): mean ± SEM; for Inactivation V0.5 (mV): half-maximal voltage of inactivation; for inactivation speed of P/Q type VDCC (decelerating effect on calcium inactivation): patch-clamp; for Activation k (mV) / Inactivation K (mV): slope factor
T1 construct: expressed in transfected cells; host or cells: HEK cell line
T1 sequence (P27884 whole entry): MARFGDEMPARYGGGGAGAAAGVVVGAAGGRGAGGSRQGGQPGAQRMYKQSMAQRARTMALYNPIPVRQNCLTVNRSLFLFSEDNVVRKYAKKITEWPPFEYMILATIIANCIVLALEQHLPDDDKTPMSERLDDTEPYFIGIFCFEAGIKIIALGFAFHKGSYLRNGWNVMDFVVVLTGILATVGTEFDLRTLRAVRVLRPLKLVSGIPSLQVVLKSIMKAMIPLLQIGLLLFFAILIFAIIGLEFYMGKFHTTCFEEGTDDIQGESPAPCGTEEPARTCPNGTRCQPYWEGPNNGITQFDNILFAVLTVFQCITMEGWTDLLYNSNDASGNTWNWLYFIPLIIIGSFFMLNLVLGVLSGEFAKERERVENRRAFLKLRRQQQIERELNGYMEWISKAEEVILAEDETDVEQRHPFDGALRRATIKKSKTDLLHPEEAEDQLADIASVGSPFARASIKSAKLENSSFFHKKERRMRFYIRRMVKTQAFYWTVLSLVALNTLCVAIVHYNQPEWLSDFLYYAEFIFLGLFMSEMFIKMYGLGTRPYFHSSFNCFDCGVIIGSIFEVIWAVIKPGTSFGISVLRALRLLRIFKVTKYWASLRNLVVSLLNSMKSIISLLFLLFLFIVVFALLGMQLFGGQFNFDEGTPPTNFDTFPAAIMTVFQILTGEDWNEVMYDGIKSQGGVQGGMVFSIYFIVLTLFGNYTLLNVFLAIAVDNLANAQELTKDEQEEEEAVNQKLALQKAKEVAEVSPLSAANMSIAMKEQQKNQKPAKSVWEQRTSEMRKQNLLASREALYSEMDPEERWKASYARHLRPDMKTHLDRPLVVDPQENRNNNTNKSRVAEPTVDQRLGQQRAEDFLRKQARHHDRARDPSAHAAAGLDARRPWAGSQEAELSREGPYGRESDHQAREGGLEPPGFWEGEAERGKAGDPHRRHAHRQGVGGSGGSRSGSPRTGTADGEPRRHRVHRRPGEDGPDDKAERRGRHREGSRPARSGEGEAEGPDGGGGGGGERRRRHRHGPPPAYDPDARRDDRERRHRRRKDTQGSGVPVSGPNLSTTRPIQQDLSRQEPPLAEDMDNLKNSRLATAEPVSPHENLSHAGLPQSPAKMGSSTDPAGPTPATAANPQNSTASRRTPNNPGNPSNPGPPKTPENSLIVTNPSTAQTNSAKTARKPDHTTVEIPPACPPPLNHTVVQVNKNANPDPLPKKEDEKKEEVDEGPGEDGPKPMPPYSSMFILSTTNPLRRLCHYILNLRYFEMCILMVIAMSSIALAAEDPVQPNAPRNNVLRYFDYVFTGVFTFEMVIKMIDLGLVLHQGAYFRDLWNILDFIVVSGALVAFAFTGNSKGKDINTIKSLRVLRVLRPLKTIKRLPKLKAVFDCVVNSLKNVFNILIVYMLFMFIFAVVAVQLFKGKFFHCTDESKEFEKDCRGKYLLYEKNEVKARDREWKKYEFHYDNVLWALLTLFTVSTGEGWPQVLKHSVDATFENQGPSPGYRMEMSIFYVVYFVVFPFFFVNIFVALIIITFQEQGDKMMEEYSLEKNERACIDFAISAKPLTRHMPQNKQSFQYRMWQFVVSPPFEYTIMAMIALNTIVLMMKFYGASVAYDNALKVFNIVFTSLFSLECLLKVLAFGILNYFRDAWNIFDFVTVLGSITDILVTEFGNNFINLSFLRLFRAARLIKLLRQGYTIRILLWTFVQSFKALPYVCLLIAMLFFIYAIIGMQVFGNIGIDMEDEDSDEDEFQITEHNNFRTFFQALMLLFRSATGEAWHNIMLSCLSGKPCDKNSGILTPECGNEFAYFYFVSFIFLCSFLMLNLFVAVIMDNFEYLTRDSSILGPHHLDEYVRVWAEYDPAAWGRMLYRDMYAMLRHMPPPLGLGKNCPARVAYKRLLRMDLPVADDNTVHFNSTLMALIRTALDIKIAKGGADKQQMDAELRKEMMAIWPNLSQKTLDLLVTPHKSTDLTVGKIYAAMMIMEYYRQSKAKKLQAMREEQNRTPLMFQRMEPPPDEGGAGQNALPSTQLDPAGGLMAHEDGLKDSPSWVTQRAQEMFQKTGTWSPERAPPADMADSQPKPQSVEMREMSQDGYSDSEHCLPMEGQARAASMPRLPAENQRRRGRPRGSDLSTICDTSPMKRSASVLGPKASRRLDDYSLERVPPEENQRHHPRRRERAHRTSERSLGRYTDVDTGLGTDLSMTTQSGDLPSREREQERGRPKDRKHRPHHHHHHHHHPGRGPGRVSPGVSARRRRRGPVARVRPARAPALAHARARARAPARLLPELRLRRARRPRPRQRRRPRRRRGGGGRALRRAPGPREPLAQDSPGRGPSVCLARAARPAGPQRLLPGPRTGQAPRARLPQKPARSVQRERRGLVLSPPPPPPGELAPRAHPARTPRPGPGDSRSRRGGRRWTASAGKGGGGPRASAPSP
T1 sequence (P13806 27-1106 partner): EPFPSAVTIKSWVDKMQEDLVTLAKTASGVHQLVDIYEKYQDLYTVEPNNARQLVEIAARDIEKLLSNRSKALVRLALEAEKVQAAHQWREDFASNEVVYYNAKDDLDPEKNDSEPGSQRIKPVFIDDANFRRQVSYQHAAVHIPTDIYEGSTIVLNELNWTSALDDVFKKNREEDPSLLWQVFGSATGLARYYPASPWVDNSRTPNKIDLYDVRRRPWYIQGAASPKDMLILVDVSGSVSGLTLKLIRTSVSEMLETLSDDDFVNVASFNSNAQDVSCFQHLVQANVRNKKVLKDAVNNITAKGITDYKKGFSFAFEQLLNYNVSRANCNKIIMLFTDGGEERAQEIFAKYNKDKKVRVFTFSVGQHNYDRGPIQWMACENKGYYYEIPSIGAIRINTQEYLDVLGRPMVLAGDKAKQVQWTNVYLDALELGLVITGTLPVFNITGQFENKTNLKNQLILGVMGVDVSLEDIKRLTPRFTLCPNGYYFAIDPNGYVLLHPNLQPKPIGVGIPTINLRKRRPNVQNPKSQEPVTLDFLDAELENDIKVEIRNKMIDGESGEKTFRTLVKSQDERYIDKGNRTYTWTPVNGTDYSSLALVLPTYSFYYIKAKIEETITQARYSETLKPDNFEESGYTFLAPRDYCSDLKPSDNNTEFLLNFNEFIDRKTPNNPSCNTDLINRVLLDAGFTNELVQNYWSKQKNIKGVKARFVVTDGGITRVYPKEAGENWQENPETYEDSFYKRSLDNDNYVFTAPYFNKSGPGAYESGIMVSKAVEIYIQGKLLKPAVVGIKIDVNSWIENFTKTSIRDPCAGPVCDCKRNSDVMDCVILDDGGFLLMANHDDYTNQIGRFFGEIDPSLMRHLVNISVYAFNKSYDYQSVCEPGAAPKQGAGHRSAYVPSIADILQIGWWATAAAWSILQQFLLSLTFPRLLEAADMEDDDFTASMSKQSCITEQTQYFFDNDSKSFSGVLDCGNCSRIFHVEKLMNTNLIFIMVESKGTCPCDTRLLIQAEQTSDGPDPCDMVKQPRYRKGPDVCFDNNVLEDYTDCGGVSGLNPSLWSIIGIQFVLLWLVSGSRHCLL
T1 sequence (P19517 whole entry partner): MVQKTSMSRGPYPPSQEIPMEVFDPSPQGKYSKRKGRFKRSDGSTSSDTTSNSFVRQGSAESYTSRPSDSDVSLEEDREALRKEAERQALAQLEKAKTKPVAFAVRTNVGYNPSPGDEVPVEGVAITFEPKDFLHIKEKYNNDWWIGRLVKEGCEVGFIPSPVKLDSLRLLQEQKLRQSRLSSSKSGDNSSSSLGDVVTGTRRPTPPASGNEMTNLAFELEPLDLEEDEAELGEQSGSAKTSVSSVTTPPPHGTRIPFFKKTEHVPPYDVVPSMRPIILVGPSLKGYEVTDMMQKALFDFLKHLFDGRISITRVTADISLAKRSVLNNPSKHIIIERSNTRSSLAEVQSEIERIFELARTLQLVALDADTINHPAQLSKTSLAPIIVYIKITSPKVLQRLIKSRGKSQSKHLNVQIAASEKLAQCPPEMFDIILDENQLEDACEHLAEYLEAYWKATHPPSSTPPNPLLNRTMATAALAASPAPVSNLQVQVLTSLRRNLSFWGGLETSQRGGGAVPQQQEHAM

B1: P77T/R221H: EFHC1 protein with the double mutation P77T and R221H (protein)
chain: MVSNPVHGLPFLPGTSFKDSTKTAFHRSQTLSYRNGYAIVRRPTVGIGGDRLQFNQLSQAELDELASKAPVLTYGQTKQAPPADFIPAHVAFDKKVLKFDAYFQEDVPMSTEEQYRIRQVNIYYYLEDDSMSVIEPVVENSGILQGKLIKRQRLAKNDRGDHYHWKDLNRGINITIYGKTFRVVDCDQFTQVFLESQGIELNPPEKMALDPYTELRKQPLHKYVTPSDFDQLKQFLTFDKQVLRFYAIWDDTDSMYGECRTYIIHYYLMDDTVEIREVHERNDGRDPFPLLMNRQRVPKVLVENAKNFPQCVLEISDQEVLEWYTAKDFIVGKSLTILGRTFFIYDCDPFTRRYYKEKFGITDLPRIDVSKREPPPVKQELPPYNGFGLVEDSAQNCFTLIPKAPKKDVIKMLVNDNKVLRYLAVLESPIPEDKDRRFVFSYFLATDMISIFEPPVRNSGIIGGKYLGRTKVVKPYSTVDNPVYYGPSDFFIGAVIEVFGHRFIILDTDEYVLKYMESNAAQYSPEALASIQNHVRKREAPAPEAESKQTEKDPGVQELEALIDTIQKQLKDHSCKDNIREAFQIYDKEASGYVDRDMFFKICESLNVPVDDSLVKELIRMCSHGEGKINYYNFVRAFSN
B1 was tested. Which “cell-death effect (GFP-positive surviving cell numbers)” value (from here on “cell-death effect”) [1] did it give?
The value was “significantly reduced; also recorded: significantly reversed”.

B2: D210N: EFHC1 protein with JME missense mutation D210N (Asp210Asn) (protein)
chain: MVSNPVHGLPFLPGTSFKDSTKTAFHRSQTLSYRNGYAIVRRPTVGIGGDRLQFNQLSQAELDELASKAPVLTYGQPKQAPPADFIPAHVAFDKKVLKFDAYFQEDVPMSTEEQYRIRQVNIYYYLEDDSMSVIEPVVENSGILQGKLIKRQRLAKNDRGDHYHWKDLNRGINITIYGKTFRVVDCDQFTQVFLESQGIELNPPEKMALNPYTELRKQPLRKYVTPSDFDQLKQFLTFDKQVLRFYAIWDDTDSMYGECRTYIIHYYLMDDTVEIREVHERNDGRDPFPLLMNRQRVPKVLVENAKNFPQCVLEISDQEVLEWYTAKDFIVGKSLTILGRTFFIYDCDPFTRRYYKEKFGITDLPRIDVSKREPPPVKQELPPYNGFGLVEDSAQNCFTLIPKAPKKDVIKMLVNDNKVLRYLAVLESPIPEDKDRRFVFSYFLATDMISIFEPPVRNSGIIGGKYLGRTKVVKPYSTVDNPVYYGPSDFFIGAVIEVFGHRFIILDTDEYVLKYMESNAAQYSPEALASIQNHVRKREAPAPEAESKQTEKDPGVQELEALIDTIQKQLKDHSCKDNIREAFQIYDKEASGYVDRDMFFKICESLNVPVDDSLVKELIRMCSHGEGKINYYNFVRAFSN
Which “Activation V0.5 (mV)” value (PQ type VDCC (Cav2.1)) does the source give for B2 here?
Its value is 24.1 ± 1.4 mV.

What about the “Inactivation V0.5 (mV)” value (PQ type VDCC (Cav2.1)) of the same molecule?
The value was −9.4 ± 1.4 mV.

What about the “inactivation speed of P/Q type VDCC (decelerating effect on calcium inactivation)” value (PQ type VDCC (Cav2.1)) of the same molecule?
Its value is “did not significantly affect”.

And the “Activation k (mV)” value (PQ type VDCC (Cav2.1))?
Its value is 9.08 ± 0.71 mV.

And the “Inactivation K (mV)” value (PQ type VDCC (Cav2.1))?
Its value is 6.44 ± 0.33 mV.

What about the “cell-death effect” value [1] of the same molecule?
Its value is “significantly reversed”.

B3: 1619L: EFHC1 protein with coding polymorphism I619L (protein, UniProt Q5JVL4 1-640, looked up, variant I619L)
EF-hand domain-containing …: MVSNPVHGLPFLPGTSFKDSTKTAFHRSQTLSYRNGYAIVRRPTVGIGGDRLQFNQLSQAELDELASKAPVLTYGQPKQAPPADFIPAHVAFDKKVLKFDAYFQEDVPMSTEEQYRIRQVNIYYYLEDDSMSVIEPVVENSGILQGKLIKRQRLAKNDRGDHYHWKDLNRGINITIYGKTFRVVDCDQFTQVFLESQGIELNPPEKMALDPYTELRKQPLRKYVTPSDFDQLKQFLTFDKQVLRFYAIWDDTDSMYGECRTYIIHYYLMDDTVEIREVHERNDGRDPFPLLMNRQRVPKVLVENAKNFPQCVLEISDQEVLEWYTAKDFIVGKSLTILGRTFFIYDCDPFTRRYYKEKFGITDLPRIDVSKREPPPVKQELPPYNGFGLVEDSAQNCFALIPKAPKKDVIKMLVNDNKVLRYLAVLESPIPEDKDRRFVFSYFLATDMISIFEPPVRNSGIIGGKYLGRTKVVKPYSTVDNPVYYGPSDFFIGAVIEVFGHRFIILDTDEYVLKYMESNAAQYSPEALASIQNHVRKREAPAPEAESKQTEKDPGVQELEALIDTIQKQLKDHSCKDNIREAFQIYDKEASGYVDRDMFFKICESLNVPVDDSLVKELLRMCSHGEGKINYYNFVRAFSN
With B3 as the molecule, how does the “cell-death effect” value [1] read?
Its value is “largely maintained”.

B4: P77T: EFHC1 protein with JME missense mutation P77T (Pro77Thr) (protein)
chain: MVSNPVHGLPFLPGTSFKDSTKTAFHRSQTLSYRNGYAIVRRPTVGIGGDRLQFNQLSQAELDELASKAPVLTYGQTKQAPPADFIPAHVAFDKKVLKFDAYFQEDVPMSTEEQYRIRQVNIYYYLEDDSMSVIEPVVENSGILQGKLIKRQRLAKNDRGDHYHWKDLNRGINITIYGKTFRVVDCDQFTQVFLESQGIELNPPEKMALDPYTELRKQPLRKYVTPSDFDQLKQFLTFDKQVLRFYAIWDDTDSMYGECRTYIIHYYLMDDTVEIREVHERNDGRDPFPLLMNRQRVPKVLVENAKNFPQCVLEISDQEVLEWYTAKDFIVGKSLTILGRTFFIYDCDPFTRRYYKEKFGITDLPRIDVSKREPPPVKQELPPYNGFGLVEDSAQNCFTLIPKAPKKDVIKMLVNDNKVLRYLAVLESPIPEDKDRRFVFSYFLATDMISIFEPPVRNSGIIGGKYLGRTKVVKPYSTVDNPVYYGPSDFFIGAVIEVFGHRFIILDTDEYVLKYMESNAAQYSPEALASIQNHVRKREAPAPEAESKQTEKDPGVQELEALIDTIQKQLKDHSCKDNIREAFQIYDKEASGYVDRDMFFKICESLNVPVDDSLVKELIRMCSHGEGKINYYNFVRAFSN
For B4, which “Ca2+ current density of P/Q-type VDCC (Cav2.1)” value (PQ type VDCC (Cav2.1); cells co-transfected with P/Q-type VDCC and EFHC1 constructs) is on record?
The value was “moderately increased”.

What about the “Activation V0.5 (mV)” value (PQ type VDCC (Cav2.1)) of the same molecule?
Its value is 23.0 ± 3.2 mV.

What about the “Inactivation V0.5 (mV)” value (PQ type VDCC (Cav2.1)) of the same molecule?
Its value is −15.8 ± 1.4 mV.

What about the “inactivation speed of P/Q type VDCC (decelerating effect on calcium inactivation)” value (PQ type VDCC (Cav2.1)) of the same molecule?
Its value is “abolished the decelerating effect”.

And the “Activation k (mV)” value (PQ type VDCC (Cav2.1))?
The value was 8.87 ± 1.67 mV.

What about the “Inactivation K (mV)” value (PQ type VDCC (Cav2.1)) of the same molecule?
The value was 6.59 ± 0.44 mV.

What about the “cell-death effect” value [1] of the same molecule?
The value was “significantly reversed”.

B5: R159W: EFHC1 protein with coding polymorphism R159W (Arg159Trp) (protein)
chain: MVSNPVHGLPFLPGTSFKDSTKTAFHRSQTLSYRNGYAIVRRPTVGIGGDRLQFNQLSQAELDELASKAPVLTYGQPKQAPPADFIPAHVAFDKKVLKFDAYFQEDVPMSTEEQYRIRQVNIYYYLEDDSMSVIEPVVENSGILQGKLIKRQRLAKNDWGDHYHWKDLNRGINITIYGKTFRVVDCDQFTQVFLESQGIELNPPEKMALDPYTELRKQPLRKYVTPSDFDQLKQFLTFDKQVLRFYAIWDDTDSMYGECRTYIIHYYLMDDTVEIREVHERNDGRDPFPLLMNRQRVPKVLVENAKNFPQCVLEISDQEVLEWYTAKDFIVGKSLTILGRTFFIYDCDPFTRRYYKEKFGITDLPRIDVSKREPPPVKQELPPYNGFGLVEDSAQNCFTLIPKAPKKDVIKMLVNDNKVLRYLAVLESPIPEDKDRRFVFSYFLATDMISIFEPPVRNSGIIGGKYLGRTKVVKPYSTVDNPVYYGPSDFFIGAVIEVFGHRFIILDTDEYVLKYMESNAAQYSPEALASIQNHVRKREAPAPEAESKQTEKDPGVQELEALIDTIQKQLKDHSCKDNIREAFQIYDKEASGYVDRDMFFKICESLNVPVDDSLVKELIRMCSHGEGKINYYNFVRAFSN
With B5 as the molecule, how does the “cell-death effect” value [1] read?
Its value is “largely maintained”.

B6: R182H: EFHC1 protein with coding polymorphism R182H (Arg182His) (protein)
chain: MVSNPVHGLPFLPGTSFKDSTKTAFHRSQTLSYRNGYAIVRRPTVGIGGDRLQFNQLSQAELDELASKAPVLTYGQPKQAPPADFIPAHVAFDKKVLKFDAYFQEDVPMSTEEQYRIRQVNIYYYLEDDSMSVIEPVVENSGILQGKLIKRQRLAKNDRGDHYHWKDLNRGINITIYGKTFHVVDCDQFTQVFLESQGIELNPPEKMALDPYTELRKQPLRKYVTPSDFDQLKQFLTFDKQVLRFYAIWDDTDSMYGECRTYIIHYYLMDDTVEIREVHERNDGRDPFPLLMNRQRVPKVLVENAKNFPQCVLEISDQEVLEWYTAKDFIVGKSLTILGRTFFIYDCDPFTRRYYKEKFGITDLPRIDVSKREPPPVKQELPPYNGFGLVEDSAQNCFTLIPKAPKKDVIKMLVNDNKVLRYLAVLESPIPEDKDRRFVFSYFLATDMISIFEPPVRNSGIIGGKYLGRTKVVKPYSTVDNPVYYGPSDFFIGAVIEVFGHRFIILDTDEYVLKYMESNAAQYSPEALASIQNHVRKREAPAPEAESKQTEKDPGVQELEALIDTIQKQLKDHSCKDNIREAFQIYDKEASGYVDRDMFFKICESLNVPVDDSLVKELIRMCSHGEGKINYYNFVRAFSN
Which “cell-death effect” value [1] does the source give for B6 here?
Its value is “largely maintained”.

B7: R221H: EFHC1 protein with JME missense mutation R221H (Arg221His) (protein)
chain: MVSNPVHGLPFLPGTSFKDSTKTAFHRSQTLSYRNGYAIVRRPTVGIGGDRLQFNQLSQAELDELASKAPVLTYGQPKQAPPADFIPAHVAFDKKVLKFDAYFQEDVPMSTEEQYRIRQVNIYYYLEDDSMSVIEPVVENSGILQGKLIKRQRLAKNDRGDHYHWKDLNRGINITIYGKTFRVVDCDQFTQVFLESQGIELNPPEKMALDPYTELRKQPLHKYVTPSDFDQLKQFLTFDKQVLRFYAIWDDTDSMYGECRTYIIHYYLMDDTVEIREVHERNDGRDPFPLLMNRQRVPKVLVENAKNFPQCVLEISDQEVLEWYTAKDFIVGKSLTILGRTFFIYDCDPFTRRYYKEKFGITDLPRIDVSKREPPPVKQELPPYNGFGLVEDSAQNCFTLIPKAPKKDVIKMLVNDNKVLRYLAVLESPIPEDKDRRFVFSYFLATDMISIFEPPVRNSGIIGGKYLGRTKVVKPYSTVDNPVYYGPSDFFIGAVIEVFGHRFIILDTDEYVLKYMESNAAQYSPEALASIQNHVRKREAPAPEAESKQTEKDPGVQELEALIDTIQKQLKDHSCKDNIREAFQIYDKEASGYVDRDMFFKICESLNVPVDDSLVKELIRMCSHGEGKINYYNFVRAFSN
How did the “Activation V0.5 (mV)” value (PQ type VDCC (Cav2.1)) turn out when B7 was run?
The value was 17.7 ± 1.9 mV.

And the “Inactivation V0.5 (mV)” value (PQ type VDCC (Cav2.1))?
The value was −17.0 ± 2.5 mV.

What about the “inactivation speed of P/Q type VDCC (decelerating effect on calcium inactivation)” value (PQ type VDCC (Cav2.1)) of the same molecule?
Its value is “abolished the decelerating effect”.

And the “Activation k (mV)” value (PQ type VDCC (Cav2.1))?
The value was 7.08 ± 0.81 mV.

What about the “Inactivation K (mV)” value (PQ type VDCC (Cav2.1)) of the same molecule?
The value was 7.00 ± 0.27 mV.

What about the “cell-death effect” value [1] of the same molecule?
The value was “significantly reversed”.
